Measured values reported in patent EP0629133B1, “PEPTIDE-METAL ION PHARMACEUTICAL APPLICATIONS” (Rhomed, Incorporated, priority 1992, dated 1993).
Read-outs that look alike come from different tables or passages of the source. Ends that are not written are not given here.

Legend:
[1] = freshly radiolabelled
[2] = design: species or system adult female Fischer 344 rats; conditions: rat, in vivo
Procedure: The clearance rates of the ^99mTc-IKVAV-containing peptide of Example 4 was evaluated in adult female Fischer 344 rats at 2 hours after injection. Each experimental group was composed of three animals. Each animal was anaesthetised with ketamine and the bile duct and bladder were cannulated. Blood was collected over various periods of time from the jugular vein.

[3] = design: species or system mice; conditions: mouse, in vivo
Procedure: Some studies involved pre-incubation of the ^99mTc-IKVAV-containing peptide in whole blood prior to injection and determination of biodistribution. In these studies, whole human blood was obtained from a healthy adult male donor and collected into Vacutainer tubes containing EDTA. After mixing to insure proper dissolution of the EDTA, approximately 2.5 ml of the whole blood was removed and mixed with 0.25 ml of ^99mTc-peptide. The mixture was allowed to incubate 30 minutes at room temperature. After 30 minutes, aliquots of 0.1 ml were injected into the tail vein of the mice. The amount of radioactivity in the circulation for ^99mTc-IKVAV-containing peptide pre-incubated in whole blood was higher than in animals receiving ^99mTc-IKVAV-containing peptide without incubation in blood.

[4] = design: species or system tight-skin (Tsk) mouse; conditions: mouse, in vivo
Source text: Biodistribution was also studied in a lung disease model which used tight-skin mice with genetic emphysema. The tight-skin (Tsk) mouse is a genetic mutant caused by a dominant gene deficiency of serum anti-elastase. Heterozygous (Tsk/+) animals show multiple skin connective tissue abnormalities resembling scleroderma as well as an increased growth of cartilage, bone, and small tendons with hyperplasia of the tendon sheaths. The Tsk trait is associated with progressive pulmonary emphysema and development of right ventricular hypertrophy, as well as with lung collagen changes. These mice, as well as genetic control mice (pallid), were obtained from The Jackson Laboratory (Bar Harbor, ME). The relative localisation of ^99mTc-IKVAV-peptide of Example 4 at all time points examined (10, 30, and 120 minutes post-injection), was decreased in the lungs of animals with emphysema relative to paired control animals.

thromboembolism = test: Diagnostic imaging of thrombosis in a patient (gamma scintigraphy or SPECT); format: in vivo; conditions: kit of Examples 12, 18, 19, or 20, i.v., imaged at 30 minute intervals
Procedure: A kit of Examples 12, 18, 19, or 20 is used in to localise thromboembolism in a patient. After radiolabelling with ^99mTc as in Example 13, the ^99mTc-YIGSR-peptide is injected intravenously. Starting immediately upon injection, the patient is imaged, using conventional gamma scintigraphy or SPECT imaging, and is imaged at 30 minute intervals thereafter.

[5] = Biodistribution after pre-incubation of 99mTc-YIGSR-peptide in whole human blood; format: in vivo, mice; conditions: pre-incubated 30 minutes in whole human blood, compared with no incubation in blood
Procedure: Some studies involved pre-incubation of the ^99mTc-YIGSR-peptide in whole blood prior to injection and determination of biodistribution (Table 7). In these studies, whole human blood was obtained from a healthy adult donor and collected into Vacutainer tubes containing EDTA. After mixing to insure proper dissolution of the EDTA, approximately 2.5 ml of the whole blood was removed and mixed with 0.25 ml of ^99mTc-YIGSR-peptide. The mixture was allowed to incubate 30 minutes at room temperature. After 30 minutes, aliquots of 0.1 ml were injected into the tail vein of the mice. The amount of radioactivity in the circulation for ^99mTc-YIGSR-peptide of Example 12 pre-incubated in whole blood was similar to that in animals receiving ^99mTc-YIGSR-peptide without incubation in blood.

[6] = Biodistribution of 99mTc-YIGSR-peptide after tail vein injection; format: in vivo, adult female Swiss-Webster mice; conditions: biodistribution studies
Procedure: The biodistribution of the ^99mTc-YIGSR-peptide of Example 12 was evaluated in adult female Swiss-Webster mice (approximately 19 g) at selected times (10, 30, and 120 minutes) after injection into the tail vein. Each experimental group was composed of at least five animals, with each animal receiving 0.1 ml containing 5 µg of peptide (1 µCi/µg). Animals were sacrificed by Halothane overdose, and selected organs dissected, weighed, and associated radioactivity determined. Data were analysed using a computer program specifically designed for ^99mTc-labelled preparations. The percent dose per organ for blood, bone, and muscle were calculated assuming 7, 8.2, and 40% of total body weight, respectively, for these tissues.

whole blood clots = test: In vitro binding of 99mTc-YIGSR-containing peptide to whole blood clots; format: cell-based, human; conditions: 90 minutes, 0.5 ml of whole blood clots, 0.4 to 50 µg of radiolabelled peptide
Procedure: (§1) In other experiments, the peptide of Example 12, labelled as in Example 13, was used for in vitro binding studies. In these studies, the ^99mTc-YIGSR-containing peptide was incubated for 90 minutes with either 0.5 ml of whole blood clots, using from 0.4 to 50 µg of radiolabelled peptide, or with approximately 10^7 platelets, using from 2 to 200 µg of radiolabelled peptide.

platelets = test: In vitro binding of 99mTc-YIGSR-containing peptide to platelets; format: cell-based, human; conditions: 90 minutes, approximately 10^7 platelets, 2 to 200 µg of radiolabelled peptide
Procedure: as §1

[7] = Clearance rates of 99mTc-YIGSR-peptide (plasma, urine, bile; cannulated animals); format: in vivo, adult female Sprague-Dawley rats
Procedure: The clearance rates of the ^99mTc-YIGSR-peptide of Example 12 was evaluated in adult female Sprague-Dawley rats at 2 hours after injection. Each experimental group was composed of three animals. Each animal was anaesthetised with ketamine and the bile duct and bladder were cannulated. Blood was collected over various periods of time from the jugular vein. […] In biodistribution studies, the highest amount of radioactivity was found in the kidneys, and is consistent with the rat clearance data. No major accumulation of radioactivity was found in any organ examined (other than kidney), and at later times (2 and 4 hours post injection) no re-distribution of the radiolabel was noted.

CSRARKQAASIKVAVSADR [^99mTc-IKVAV-containing peptide]
particles under a phase contrast microscope [1]: No particles were visible | bile clearance [2]: 0.9 ± 0.3% | clearance rate from the plasma [2]: 2.4 mL/min | injected dose cleared through urine [2]: 10.8 ± 4.9% | amount of radioactivity in the circulation [3]: higher | lung uptake [3]: significantly decreased | relative localisation in the lungs [4]: decreased

H-CDPGYIGSR [^99mTc-YIGSR-peptide]
appearance of sites of thromboembolism by scintigraphy (thromboembolism): photon-rich image locations | amount of radioactivity in the circulation [5]: similar | organ with the highest amount of radioactivity [6]: kidneys | binding to whole blood clots (whole blood clots): dose-response relationship | binding to platelets (platelets): dose-response relationship | bile clearance ([7]; at two hours): 6.9 ± 0.3% | injected doses cleared through urine ([7]; at two hours): 31.2 ± 9.1% | clearance rate from the plasma ([7]; rats): 2.6 mL/min
